Laboratory results published in patent US20140302123A1 (INSTITUT PASTEUR, published 2014).

Experiments:
Cyto13-vir [1] = target: T1, Cyto13-vir (rabies virus (CVS-NIV RABV strain)); assay: NMR titration (rounded value in the text)
DARL-13 = DARL-13 (rabies virus (vampire bat RABV strain)); assay: NMR titration, 15N-labeled PTPN4-PDZ with unlabeled peptide
Cyto13-vir [2] = target: T1, Cyto13-vir; assay: as above

B1: PTPN4-PDZ (residues G499-N604) (other)
chain: GSPEKPTPNGGIPHDNLVLIRMKPDENGRFGFNVKGGYDQKMPVIVSRVAPGTPADLCVPRLNEGDQVVLINGRDIAEHTHDQVVLFIKASCERHSGELMLLVRPN
notes: range 500-604; also called PDZ of PTPN4; PTPN4 PDZ domain
How did the Kd (Cyto13-vir [1]) turn out when B1 was run?
Its Kd is 560 µM.

And the Kd (DARL-13)?
The Kd was 1280 µM.

What about the Kd (Cyto13-vir [2]) of the same binder?
Its Kd is 568 µM.
